Measurements from PMC7102993.

Legend:
[1] = molecular target: NrS-1 polymerase C-terminal region (residues 301-718) (phage NrS-1); test: crystal structure; B-form NrS-1 CTR crystals, space group P213, grown at 16°C in 1.6 M NaH2PO4/0.4 M K2HPO4, 0.1 M phosphate-citrate pH 4.2; two monomers per asymmetric unit, hexamer by symmetry operation; 2.4 Å
[2] = molecular target: NrS-1 polymerase C-terminal region (residues 301-718) (phage NrS-1); test: crystal structure; A-form NrS-1 CTR crystals, space group P212121, grown at 16°C in 2.8 M sodium acetate trihydrate pH 7.0; six monomers per asymmetric unit
[3] = molecular target: full-length NrS-1 polymerase (wild type) (phage NrS-1); test: SEC; Superose 6 Increase 10/300 GL; 20 mM Tris pH 8.0, 2 mM DTT with 500 mM NaCl (high salt) or 200 mM NaCl (low salt); monomer at 15.83 ml, hexamer at 13.5 ml
[4] = molecular target: full-length NrS-1 polymerase (wild type) (phage NrS-1); test: negative-stain electron microscopy; protein from the first peak of the size-exclusion column, diluted to 40 μg/ml in low-salt buffer, stained with 0.75% uranyl formate; 2D class averages and 3D map (RELION)
[5] = molecular target: full-length NrS-1 polymerase K525A mutant (phage NrS-1); test: SEC; Superose 6 Increase 10/300 GL; 20 mM Tris pH 8.0, 2 mM DTT with 500 mM NaCl (high salt) or 200 mM NaCl (low salt); monomer at 15.83 ml, hexamer at 13.5 ml

Substance: NrS-1 polymerase C-terminal region (residues 301-718) (domain or fragment)
- stoichiometry N [1]: 6
- stoichiometry N [2]: 6

Substance: full-length NrS-1 polymerase (wild type) (enzyme)
- stoichiometry N [3]: 6
- stoichiometry N [4]: 6

Substance: full-length NrS-1 polymerase K525A mutant (enzyme)
- stoichiometry N [5]: 6
